Data from patent US20240000833A1, “METHODS FOR EXPANDING A POPULATION OF ALVEOLAR MACROPHAGES IN A LONG TERM CULTURE” (Institut National de la Santé et de la Recherche Médicale, priority 2015, published 2024).

Experiments:
Format in all cases: cell-based, mouse
[1] = tested on: peritoneal macrophages (PM); assay: In vitro BrdU incorporation by peritoneal macrophages after stimulation with GM-CSF; conditions: cultured PM, 3 days after stimulation, 18 h BrdU pulse
Method: Peritoneal macrophages were collected by peritoneal washout using 10 mL PBS containing 2 mM EDTA (Sigma). Red cell lysis was performed (RBC Lysis Buffer, Invitrogen) and cells were filtered through a 70 um mesh before further processing. Medium changes occurred every 3-4 days.
(§1) Cell cycle analysis. In vitro proliferation of macrophages was assessed using the Cell Proliferation ELISA (BrdU, colorimetric; Roche) according to manufacturer's instructions. In brief, 10-20 thousand freshly isolated macrophages were plated per 96 well in a tissue culture dish in complete medium (DMEM, 10% FCS, 1% Pen/Strep, 1% Pyruvate, 1% Glutamate). After macrophages had attached to the plastic, plating medium was replaced with complete medium containing the respective cytokine at indicated concentration. On day 2 after stimulation, BrdU was added to the culture and BrdU incorporation was assessed on day 3.

[2] = tested on: alveolar macrophages (AM); assay: In vitro BrdU incorporation by alveolar macrophages after stimulation with GM-CSF; conditions: cultured AM, 3 days after stimulation, 18 h BrdU pulse
Method: as §1

[3] = tested on: alveolar macrophages (AM); assay: Long-term liquid culture of alveolar macrophages in the presence of GM-CSF
Method: For culture of alveolar macrophages, alveolar lavages were pooled from ten 1 mL 37° C. BAL washes (PBS, 2 mM EDTA, 2% FBS (GE Healthcare) per mouse and stored on ice. RBC lysis was then performed at room temperature (RT) for 3 minutes (RBC Lysis Buffer, Invitrogen). Cells were plated at a density of at least 1.1 million cells per 10 cm bacterial petri dish (Greiner Bio-One) or NUNC non treated 6 well plates (>0.45-5*10^6 per well) in complete medium (RPMI, 10% FCS, 1% Pen/Strep, 1% Pyruvate, 1% Glutamate) supplemented with 1-2% GM-CSF supernatant from J558L cells transfected with murine GM-CSF cDNA. Medium was partially changed every two-three days. Cells were replated only at confluency and only at least one day after medium change. To avoid cell death during detachment, cells were detached with Accutase (StemCells Technologies) and 2 mM EGTA for 15 minutes at 37° C. without agitation or pipetting and careful monitored under the microscope for the detachment process. Only after a large number of cells started to round up and float, cells were carefully detached with a p1000 pipettte.
Cell Culture. […]

B1: GM-CSF: cytokine growth factor for leukocytes; used as supernatant from J558L cells transfected with murine GM-CSF cDNA (protein, UniProt P01587 18-141, looked up)
Granulocyte-macrophage …: APTRSPITVTRPWKHVEAIKEALNLLDDMPVTLNEEVEVVSNEFSFKKLTCVQTRLKIFEQGLRGNFTKLKGALNMTASYYQTYCPPTPETDCETQVTTYADFIDSLKTFLTDIPFECKKPGQK
BrdU incorporation in response to GM-CSF [1]: not PM incorprorated BrdU
BrdU incorporation in response to GM-CSF [2]: incorprorated BrdU
duration of expansion of AM in long-term liquid culture [3]: several months
